Where two headings read alike, the source gives them in different places.

In assay [1] the target is human FcγRIIa (H131 allele) (human) (UniProt P12318).
For assay [2], the target named is human FcγRIIIa (F158 allele) (human) (UniProt P08637).
In assay [3] the target is human FcγRIIIa (V158 allele) (human) (UniProt P08637).
Assay [4] deals with human FcγRIIb (human) (UniProt P31994).
For assay [5], the target named is human FcγRIIa (H131 allele) (human) (UniProt P12318). The assay can be described thus: MSD [cont'd].
The target of assay [6] is human C1q (human) (UniProt P02745). The assay can be described thus: MSD [cont'd].
Assay [7] deals with human FcγRIIa (R131 allele) (human) (UniProt P12318). The assay can be described thus: MSD [cont'd].
The target in assay [8] is human FcγRIIIb (human) (UniProt O75015). The assay can be described thus: MSD [cont'd].
Assay [9] has as its target human FcRn (human) (UniProt P55899). The assay can be described thus: MSD [cont'd].
The target in assay [10] is human FcγRIIIa (F158 allele) (human) (UniProt P08637). The assay can be described thus: MSD [cont'd].
The target of assay [11] is human FcγRIIIa (V158 allele) (human) (UniProt P08637). The assay can be described thus: MSD [cont'd].
The target in assay [12] is human FcγRIIb (human) (UniProt P31994). The assay can be described thus: MSD [cont'd].
Assay [13] deals with human FcγRIIa (H131 allele) (human) (UniProt P12318). The assay can be described thus: MSD [cont'd]. The source holds these as a separate data set.
Assay [14] addresses human C1q (human) (UniProt P02745). The assay can be described thus: MSD [cont'd]. This is another data set of the same source.
Assay [15] deals with human FcγRIIa (R131 allele) (human) (UniProt P12318). The assay can be described thus: MSD [cont'd]. This is another data set of the same source.
Assay [16] concerns the target human FcRn (human) (UniProt P55899). The assay can be described thus: MSD [cont'd]. The source holds these as a separate data set.
For assay [17], the target named is human FcγRIIIa (F158 allele) (human) (UniProt P08637). The assay can be described thus: MSD [cont'd]. This is another data set of the same source.
In assay [18] the target is human FcγRIIb (human) (UniProt P31994). The assay can be described thus: MSD [cont'd]. The source holds these as a separate data set.
Assay [19] has as its target human FcγRIIIa (V158 allele) (human) (UniProt P08637). The assay can be described thus: MSD [cont'd]. This is another data set of the same source.
Assay [20] shares this target. The assay can be described thus: MSD electrochemiluminescence binding assay; column IIIA_V.
Assay [21] concerns the target human FcγRIIa (H131 allele) (human) (UniProt P12318). The assay can be described thus: MSD electrochemiluminescence binding assay; column IIA_H.
For assay [22], the target named is human FcγRIIa (R131 allele) (human) (UniProt P12318). The assay can be described thus: MSD electrochemiluminescence binding assay; column IIA_R.
In assay [23] the target is human FcγRIIb (human) (UniProt P31994). The assay can be described thus: MSD electrochemiluminescence binding assay; column IIB.
For assay [24], the target named is human FcRn (human) (UniProt P55899). The assay can be described thus: MSD electrochemiluminescence binding assay; column FcRn.
The target in assay [25] is human FcγRIIa (H131 allele) (human) (UniProt P12318). The source holds these as a separate data set.
Assay [26] concerns the target human FcγRIIIa (F158 allele) (human) (UniProt P08637). The source holds these as a separate data set.
In assay [27] the target is human FcγRIIIa (V158 allele) (human) (UniProt P08637). The source holds these as a separate data set.
For assay [28], the target named is human FcγRIIb (human) (UniProt P31994). The source holds these as a separate data set.
Assay [29] addresses human FcγRIIa (H131 allele) (human) (UniProt P12318). The assay can be described thus: MSD.
For assay [30], the target named is human C1q (human) (UniProt P02745). The assay can be described thus: MSD.
In assay [31] the target is human FcγRIIa (R131 allele) (human) (UniProt P12318). The assay can be described thus: MSD.
The target of assay [32] is human FcγRIIIb (human) (UniProt O75015). The assay can be described thus: MSD.
Assay [33] concerns the target human FcRn (human) (UniProt P55899). The assay can be described thus: MSD.
Assay [34] addresses human FcγRIIIa (F158 allele) (human) (UniProt P08637). The assay can be described thus: MSD.
Assay [35] addresses human FcγRIIIa (V158 allele) (human) (UniProt P08637). The assay can be described thus: MSD.
In assay [36] the target is human FcγRIIb (human) (UniProt P31994). The assay can be described thus: MSD.
The target of assay [37] is human FcγRIIIb (human) (UniProt O75015). The assay can be described thus: MSD electrochemiluminescence binding assay; column IIIB.
In assay [38] the target is human FcγRIIIa (F158 allele) (human) (UniProt P08637). The assay can be described thus: MSD electrochemiluminescence binding assay; column IIIA_F.
For assay [39], the target named is human FcRn (human) (UniProt P55899). The assay can be described thus: MSD, pH 6 [cont'd].
The target in assay [40] is human FcγRIIIa (V158 allele) (human) (UniProt P08637). This is another data set of the same source.

Sequence of human FcγRIIIa (F158 allele) (human) (P08637 17-208 limits assumed): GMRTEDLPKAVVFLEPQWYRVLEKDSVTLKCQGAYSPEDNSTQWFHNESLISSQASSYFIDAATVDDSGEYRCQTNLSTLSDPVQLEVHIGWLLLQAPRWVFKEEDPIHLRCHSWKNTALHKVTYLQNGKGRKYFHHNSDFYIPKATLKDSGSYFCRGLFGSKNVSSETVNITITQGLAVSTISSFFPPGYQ
Sequence of human FcγRIIIb (human) (O75015 17-200 limits assumed): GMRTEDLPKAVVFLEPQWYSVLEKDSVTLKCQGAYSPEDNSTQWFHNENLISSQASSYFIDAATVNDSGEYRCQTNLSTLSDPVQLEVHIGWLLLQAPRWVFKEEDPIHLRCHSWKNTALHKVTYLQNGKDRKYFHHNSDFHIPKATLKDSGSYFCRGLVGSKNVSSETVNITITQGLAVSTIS
Sequence of human C1q (human) (P02745 23-245 limits assumed, chain 1 of 3): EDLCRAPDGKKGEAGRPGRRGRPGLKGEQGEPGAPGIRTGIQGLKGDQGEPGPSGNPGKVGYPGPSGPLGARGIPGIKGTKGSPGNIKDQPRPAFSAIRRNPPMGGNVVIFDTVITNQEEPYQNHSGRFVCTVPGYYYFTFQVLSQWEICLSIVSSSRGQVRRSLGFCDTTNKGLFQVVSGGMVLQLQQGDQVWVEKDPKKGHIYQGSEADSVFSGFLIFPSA
Sequence of human C1q (human) (P02746 28-253 limits assumed, chain 2 of 3, further chain): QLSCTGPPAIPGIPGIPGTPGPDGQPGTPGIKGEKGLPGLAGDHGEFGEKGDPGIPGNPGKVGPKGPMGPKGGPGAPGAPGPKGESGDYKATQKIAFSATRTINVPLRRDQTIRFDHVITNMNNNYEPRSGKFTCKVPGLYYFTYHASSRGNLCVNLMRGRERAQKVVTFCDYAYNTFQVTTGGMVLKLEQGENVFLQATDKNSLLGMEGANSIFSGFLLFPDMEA
Sequence of human C1q (human) (P02747 29-245 limits assumed, chain 3 of 3, further chain): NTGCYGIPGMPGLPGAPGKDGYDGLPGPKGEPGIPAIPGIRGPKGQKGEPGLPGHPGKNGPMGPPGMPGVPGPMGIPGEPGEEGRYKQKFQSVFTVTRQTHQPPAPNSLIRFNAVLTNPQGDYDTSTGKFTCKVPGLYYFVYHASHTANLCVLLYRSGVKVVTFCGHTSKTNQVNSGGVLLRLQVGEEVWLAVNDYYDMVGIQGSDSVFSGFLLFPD
Sequence of human FcγRIIIa (V158 allele) (human) (P08637 17-208 F176V limits assumed): as the sequence (P08637 17-208 limits assumed) above, with F160V counted along it
Sequence of human FcRn (human) (P55899 24-297 limits assumed, chain 1 of 2): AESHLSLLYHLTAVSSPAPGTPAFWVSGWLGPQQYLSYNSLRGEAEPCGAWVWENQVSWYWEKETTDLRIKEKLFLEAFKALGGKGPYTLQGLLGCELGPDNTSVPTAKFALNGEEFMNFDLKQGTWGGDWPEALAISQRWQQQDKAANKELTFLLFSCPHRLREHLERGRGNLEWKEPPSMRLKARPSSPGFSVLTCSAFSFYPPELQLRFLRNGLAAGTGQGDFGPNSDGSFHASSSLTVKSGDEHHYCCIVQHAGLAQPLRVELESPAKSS
Sequence of human FcRn (human) (chain, as listed by the source limits assumed, chain 2 of 2): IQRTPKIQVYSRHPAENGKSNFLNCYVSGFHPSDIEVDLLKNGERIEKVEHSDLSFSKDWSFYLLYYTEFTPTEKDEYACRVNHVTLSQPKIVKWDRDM
Sequence of human FcγRIIa (R131 allele) (human) (P12318 34-218 H167R limits assumed): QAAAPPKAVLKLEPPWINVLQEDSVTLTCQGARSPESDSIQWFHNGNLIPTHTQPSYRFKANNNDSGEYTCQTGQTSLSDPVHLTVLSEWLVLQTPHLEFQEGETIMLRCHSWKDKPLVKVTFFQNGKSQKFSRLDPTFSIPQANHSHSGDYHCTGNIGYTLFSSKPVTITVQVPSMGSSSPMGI
Sequence of human FcγRIIa (H131 allele) (human) (P12318 34-218 limits assumed): as the sequence (P12318 34-218 H167R limits assumed) above, with R134H counted along it
Sequence of human FcγRIIb (human) (P31994 43-217 limits assumed): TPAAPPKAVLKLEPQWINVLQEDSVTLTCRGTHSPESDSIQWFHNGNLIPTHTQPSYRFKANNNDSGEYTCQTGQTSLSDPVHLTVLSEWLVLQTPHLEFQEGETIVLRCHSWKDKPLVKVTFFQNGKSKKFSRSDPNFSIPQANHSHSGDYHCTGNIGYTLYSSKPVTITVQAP

Take A330L_I332E (antibody): the FcγR reporter signaling, fold-change vs wt [cont'd] in [1] worked out at 0.71 fold; in [2], 11.9 fold; in [3] it was 4.38 fold; in the assay with human FcγRIIb (human) [4] it was 0.69 fold. The fold-change vs wt in [5] was 0.42 fold; with human C1q (human) [6] it was 0.03 fold; in assay [7] it was 0.52 fold; with human FcγRIIIb (human) [8], 5.19 fold; with human FcRn (human) [9], 1.12 fold; in [10] it was 11.9 fold. In addition, the figures for the fold-change vs wt (in assay [11]; in the assay with human FcγRIIb (human) [12]) were 3.52 fold and 0.66 fold, respectively.
On to G236A_S239D_A330L_I332E (antibody), for which the FcγR reporter signaling, fold-change vs wt [cont'd] was 2.47 fold in [1], 19.4 fold in assay [2], 6.02 fold in assay [3] and 1.2 fold with human FcγRIIb (human) [4]. Besides, the fold-change vs wt in assay [5] is 5.15 fold; with human C1q (human) [6], 0 fold; in assay [7] it was 9.68 fold; in the assay with human FcγRIIIb (human) [8] it was 14 fold; with human FcRn (human) [9], 1.02 fold; in assay [10], 55.1 fold. In addition, the fold-change vs wt worked out at 8.03 fold in assay [11] and 1.94 fold with human FcγRIIb (human) [12].
With “IgG1 antibody with Fc variant E272R_L309T_S219Y_S267E”, the fold-change vs wt is 0.33 fold in assay [13]; 2.53 fold in the assay with human C1q (human) [14]; 10.7 fold in assay [15]; 0.98 fold in the assay with human FcRn (human) [16]; 0.37 fold in assay [17]; 4.77 fold with human FcγRIIb (human) [18].
As for “IgG1 antibody with Fc variant E345K_G236S_L235Y_S267E”, the fold-change vs wt in assay [13] turned out to be 0.53 fold; with human C1q (human) [14], 2.35 fold; in assay [15], 9.22 fold; with human FcRn (human) [16] it was 0.9 fold; in assay [17] it was 0.29 fold; in assay [19] it was 0.05 fold. The fold-change vs wt in the assay with human FcγRIIb (human) [18] stood at 1.71 fold.
In the case of “IgG1 antibody with Fc variant F243L_G446E_P396L_S267E”, the fold-change vs wt amounted to 0.77 fold in assay [13]; 4.17 fold in the assay with human C1q (human) [14]; 31.1 fold in assay [15]; 1.05 fold in the assay with human FcRn (human) [16]; 0.63 fold in assay [17]; 0.24 fold in assay [19]. In the assay with human FcγRIIb (human) [18], the fold-change vs wt was 15.7 fold.
“IgG1 antibody with Fc variant G236A_L328V_Q295E”: the fold-change in binding vs wild-type IgG1 is 0.36 in [20]; 7.76 in assay [21]; 10.7 in [22]; 0.81 with human FcγRIIb (human) [23]; 1.07 with human FcRn (human) [24]; 0.71 with human FcγRIIIb (human) [37]. In [38], the fold-change in binding vs wild-type IgG1 was 0.52. In addition, the fold-change vs wt with human C1q (human) [6] worked out at 0.07 fold; with human FcRn (human) [9], 1.08 fold; in [29], 7.8 fold; in [31], 10.8 fold; with human FcγRIIIb (human) [32], 0.7 fold; in assay [34] it was 0.52 fold. The fold-change vs wt in assay [35] was determined as 0.36 fold; with human FcγRIIb (human) [36], 0.86 fold. Further, the FcγR reporter signaling, fold-change vs wt [cont'd] in assay [25] turned out to be 2.18 fold; in assay [26], 0.02 fold; in [27], 0.03 fold; in the assay with human FcγRIIb (human) [28] it was 0.66 fold. Besides, the fold-change vs FY1 rIgG1m3 worked out at 7.8 fold in assay [29]; 0.07 fold with human C1q (human) [30]; 10.8 fold in [31]; 0.7 fold in the assay with human FcγRIIIb (human) [32]; 1.1 fold with human FcRn (human) [33]; 0.5 fold in [34]. The fold-change vs FY1 rIgG1m3 in [35] amounted to 0.4 fold; with human FcγRIIb (human) [36], 0.9 fold.
With IgG1 antibody with Fc variant G236W, the fold-change to WT Fc with human C1q (human) [6] is 3.66 fold; in [10], 0.541 fold; in [11], 0.117 fold; in assay [29] it was 1.06 fold; in assay [31] it was 0.469 fold; in the assay with human FcγRIIb (human) [36] it was 0.652 fold. For the same substance, the fold-change to WT Fc in the assay with human FcRn (human) [39] worked out at 1.09 fold. The fold-change vs wt in [13] is 1.06 fold; in the assay with human C1q (human) [14], 3.63 fold; in [15], 0.47 fold; in the assay with human FcRn (human) [16], 1.09 fold; in assay [17], 0.54 fold; in assay [19], 0.12 fold. The fold-change vs wt with human FcγRIIb (human) [18] came to 0.65 fold.
“IgG1 antibody with Fc variant R292P_Y300L”: the FcγR reporter signaling, fold-change vs wt [cont'd] in assay [1] turned out to be 0.98 fold; in [2], 7.42 fold; in assay [3], 3.66 fold; with human FcγRIIb (human) [4] it was 0.72 fold. Also, the fold-change vs wt is 1.4 fold in assay [5]; 2.09 fold with human C1q (human) [6]; 0.68 fold in assay [7]; 1.72 fold with human FcγRIIIb (human) [8]; 0.88 fold with human FcRn (human) [9]; 5.29 fold in assay [10]. For the same substance, the fold-change vs wt in [11] amounted to 4.85 fold; in the assay with human FcγRIIb (human) [12] it was 0.9 fold; in the assay with human C1q (human) [14], 2.07 fold. Moreover, the fold-change to WT Fc was found to be 2.09 fold with human C1q (human) [6]; 5.29 fold in assay [10]; 4.85 fold in assay [11]; 1.4 fold in assay [29]; 0.682 fold in [31]; 0.9 fold with human FcγRIIb (human) [36]. Besides, in the assay with human FcRn (human) [39], the fold-change to WT Fc was found to be 0.879 fold.
For “IgG1 antibody with Fc variant S239D_H268E_G236A”, the FcγR reporter signaling, fold-change vs wt [cont'd] was 2.15 fold in [1], 12.8 fold in assay [2], 5.22 fold in assay [3] and 1.8 fold with human FcγRIIb (human) [4]. Further, the fold-change vs wt was determined as 11.7 fold in assay [5]; 0.4 fold with human C1q (human) [6]; 53.5 fold in assay [7]; 3.04 fold with human FcγRIIIb (human) [8]; 0.91 fold with human FcRn (human) [9]; 16.3 fold in [10]. In addition, the fold-change vs wt in assay [11] was determined as 7.9 fold; with human FcγRIIb (human) [12], 5.09 fold.
Take IgG1 antibody with Fc variant Y300L: the fold-change vs wt amounted to 1.86 fold in [5]; 0.82 fold in assay [7]; 1.18 fold with human FcγRIIb (human) [12]; 2.14 fold with human C1q (human) [14]; 1.06 fold with human FcRn (human) [16]; 1.24 fold in [17]. In assay [19], the fold-change vs wt is 1.62 fold. In addition, the fold-change to WT Fc with human C1q (human) [6] stood at 2.16 fold; in assay [10] it was 1.25 fold; in [11], 1.62 fold; in assay [29], 1.86 fold; in [31], 0.822 fold; in the assay with human FcγRIIb (human) [36], 1.18 fold. Also, the fold-change to WT Fc with human FcRn (human) [39] is 1.06 fold.
For the substance L309T_P238D_P396L_T366A-afuc (antibody), in assay [40], the FcγR reporter signaling, fold to wt-fucose [cont'd] is 0.16 fold.

These data come from patent US20260184814A1, “BROADLY NE[…] INFLUENZA NEURAMINIDASE” (priority 2022, published 2026).
